Source: publication PMC4627417
Blank lines part the entries; values can stand above or below the substance they belong to.

Assays:
Test in all cases: biotin-peptide pull-down, MUDPIT mass spectrometry
[1] = biological target: RPRD1B (UniProt Q9NQG5)
[2] = biological target: RPRD2 (UniProt Q5VT52)
[3] = biological target: SCAF4 (UniProt O95104)
[4] = biological target: SCAF8 (UniProt Q9UPN6)
[5] = reference: pS2-CTD peptide, sites Y1
[6] = reference: unphosphorylated CTD peptide, sites S2
[7] = reference: unphosphorylated CTD peptide, sites Y1
[8] = reference: unphosphorylated CTD peptide, sites S5

- other: number of peptides identified [1, 5]: weaker; reference 40
- other: number of peptides identified [2, 5]: weaker; reference 63
- other: number of peptides identified [3, 5]: weaker; reference 12
- other: number of peptides identified [4, 5]: lost; reference 17
Substance: RNA polymerase II largest subunit (Rpb1) C-terminal repeated domain (CTD) (from UniProt P24928) pY1pS2-CTD peptide

- other: number of peptides identified [1, 6]: gained; reference 0
- other: number of peptides identified [2, 6]: gained; reference 0
- other: number of peptides identified [3, 6]: gained; reference 0
- other: number of peptides identified [4, 6]: gained; reference 0
Substance: RNA polymerase II largest subunit (Rpb1) C-terminal repeated domain (CTD) (from UniProt P24928) pS2-CTD peptide

- other: number of peptides identified [1, 7]: none in both; reference 0
- other: number of peptides identified [2, 7]: none in both; reference 0
- other: number of peptides identified [3, 7]: none in both; reference 0
- other: number of peptides identified [4, 7]: none in both; reference 0
Substance: RNA polymerase II largest subunit (Rpb1) C-terminal repeated domain (CTD) (from UniProt P24928) pY1-CTD peptide

- other: number of peptides identified [1, 8]: none in both; reference 0
- other: number of peptides identified [2, 8]: none in both; reference 0
- other: number of peptides identified [3, 8]: none in both; reference 0
- other: number of peptides identified [4, 8]: none in both; reference 0
Substance: RNA polymerase II largest subunit (Rpb1) C-terminal repeated domain (CTD) (from UniProt P24928) pS5-CTD peptide
